These results are taken from patent CN111303285A (BAILISIKANG BIOLOGICAL PHARMACEUTICAL HANGZHOU CO LTD, dated 2020).

The target of experiment [1] is T1, OX40 expressed on cells (OX40-293F细胞; 19B3 HEK293 NF-κB报告细胞系) (UniProt P43489 29-277).
T1 sequence (looked up): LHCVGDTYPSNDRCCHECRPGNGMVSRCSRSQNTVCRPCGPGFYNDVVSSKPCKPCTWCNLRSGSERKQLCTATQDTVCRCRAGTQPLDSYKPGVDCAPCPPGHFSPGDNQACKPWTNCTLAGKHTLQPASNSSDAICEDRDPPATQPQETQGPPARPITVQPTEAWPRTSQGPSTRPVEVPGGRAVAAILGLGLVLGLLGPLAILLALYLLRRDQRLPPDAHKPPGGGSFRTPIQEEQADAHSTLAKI
The experiment can be described thus: cell-based or functional assay.

A further experiment concerns the target T2, 4-1BB-rFc融合蛋白 (UniProt Q07011 24-186).
T2 construct: extracellular domain; also called 4-1BB融合蛋白; not shown: rFc part
The experiment can be described thus: ELISA, fusion protein coated on the plate. For orientation: In an ELISA, binding on a coated surface is turned into a signal by an enzyme label.

The next experiment concerns the target T3, 4-1BB-His融合蛋白 (UniProt Q07011 24-186).
T3 construct: extracellular domain; also called 4-1BB融合蛋白; not shown: His tag
As to the kind of experiment: ELISA, fusion protein coated on the plate.

B1: 本发明抗OX40抗体 (murine monoclonal anti-OX40 antibody of the invention) (antibody, V domains shown)
VH: EVQLQQSGAELVKPGASVKLSCKASGYTFTNYWIHWVKQRPGQGLEWIGEINPSNGRTNSNEKFKNKATLTVDKSSSTAYMQLSSLTSEDSAVYYCAEAVPYYFVYWGQGTTLTVSS
VL: DIVMTQAASSLSASLGDRVTISCRASQDINNYLNWYQQKPDGTVKLLIYFTSGLRSGVPSRFSGSGSGTDYSLTISNLEQEDIATYFCQQGNTLPLTFGAGTKLELN
notes: also called 本发明OX40抗体; 靶向OX40的抗体
For the molecule B1, the “NF-κB luciferase reporter (RLU) in 19B3 cells expressing OX40; 半数有效浓度(EC50)” value in experiment [1] was 0.803 µg/mL. Moreover, the binding result with 4-1BB-rFc融合蛋白 and in the experiment with 4-1BB-His融合蛋白 was “no binding” throughout.
